Test results reported in patent US20110117017A1, “PEPTIDES WITH PROPERTIES OF AN […] FOR THE ALPHA 1A […] RECEPTOR AND USES THEREOF” (priority 2006, published 2011).
Like-named read-outs stand apart in the source and are kept apart here.

Tests used:
[1] = biological target: alpha1a adrenergic receptor (expressed in Pichia pastoris, membranes)
[2] = biological target: beta1 adrenergic receptor (expressed in Pichia pastoris, membranes)
[3] = biological target: alpha1a adrenergic receptor (expressed in Pichia pastoris, membranes); remark: listed apart in the source
[4] = biological target: alpha1d adrenergic receptor (expressed in Pichia pastoris, membranes)
[5] = biological target: alpha2a adrenergic receptor (expressed in Pichia pastoris, membranes)
[6] = biological target: alpha1a adrenergic receptor (expressed in Pichia pastoris, membranes); remark: listed apart in the source

alpha1a adrenergic receptor (expressed in Pichia pastoris, membranes), sequence (P35348 whole entry): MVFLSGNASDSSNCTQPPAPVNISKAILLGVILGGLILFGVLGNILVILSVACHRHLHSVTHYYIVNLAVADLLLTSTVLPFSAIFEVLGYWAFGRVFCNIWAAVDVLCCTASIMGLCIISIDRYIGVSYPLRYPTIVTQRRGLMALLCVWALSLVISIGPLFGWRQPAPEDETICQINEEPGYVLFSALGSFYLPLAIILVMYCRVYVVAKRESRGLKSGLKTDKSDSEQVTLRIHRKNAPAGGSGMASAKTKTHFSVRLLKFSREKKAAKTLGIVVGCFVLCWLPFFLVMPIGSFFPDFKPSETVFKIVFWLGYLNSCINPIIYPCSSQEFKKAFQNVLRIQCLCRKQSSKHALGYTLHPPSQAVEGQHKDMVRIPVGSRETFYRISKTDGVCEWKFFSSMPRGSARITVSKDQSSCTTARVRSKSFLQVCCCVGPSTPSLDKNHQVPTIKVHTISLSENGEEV
alpha2a adrenergic receptor (expressed in Pichia pastoris, membranes), sequence (P08913 whole entry): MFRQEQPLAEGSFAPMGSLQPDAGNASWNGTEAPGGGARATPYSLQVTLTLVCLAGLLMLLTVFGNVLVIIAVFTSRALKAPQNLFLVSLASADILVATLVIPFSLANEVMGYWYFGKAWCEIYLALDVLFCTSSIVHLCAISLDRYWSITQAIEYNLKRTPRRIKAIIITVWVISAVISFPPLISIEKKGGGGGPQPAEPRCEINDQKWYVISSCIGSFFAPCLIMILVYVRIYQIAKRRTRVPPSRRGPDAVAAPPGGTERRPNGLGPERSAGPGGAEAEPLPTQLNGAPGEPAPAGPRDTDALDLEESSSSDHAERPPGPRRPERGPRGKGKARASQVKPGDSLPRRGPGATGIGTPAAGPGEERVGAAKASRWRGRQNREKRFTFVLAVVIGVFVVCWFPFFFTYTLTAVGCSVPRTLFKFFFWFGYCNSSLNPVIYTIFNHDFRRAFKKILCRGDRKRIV
beta1 adrenergic receptor (expressed in Pichia pastoris, membranes), sequence (P08588 whole entry): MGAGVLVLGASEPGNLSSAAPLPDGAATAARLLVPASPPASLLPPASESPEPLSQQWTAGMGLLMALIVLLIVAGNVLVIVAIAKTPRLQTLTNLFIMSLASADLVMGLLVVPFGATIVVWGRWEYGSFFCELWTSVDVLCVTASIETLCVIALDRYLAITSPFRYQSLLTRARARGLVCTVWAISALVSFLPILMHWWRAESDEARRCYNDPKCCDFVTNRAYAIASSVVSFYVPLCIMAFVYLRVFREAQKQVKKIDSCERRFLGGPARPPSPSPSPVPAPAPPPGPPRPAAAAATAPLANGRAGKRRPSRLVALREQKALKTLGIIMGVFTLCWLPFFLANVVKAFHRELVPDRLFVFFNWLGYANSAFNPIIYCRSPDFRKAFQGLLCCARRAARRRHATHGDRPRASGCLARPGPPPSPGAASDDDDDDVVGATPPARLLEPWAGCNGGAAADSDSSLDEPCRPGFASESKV
alpha1d adrenergic receptor (expressed in Pichia pastoris, membranes), sequence (P25100 whole entry): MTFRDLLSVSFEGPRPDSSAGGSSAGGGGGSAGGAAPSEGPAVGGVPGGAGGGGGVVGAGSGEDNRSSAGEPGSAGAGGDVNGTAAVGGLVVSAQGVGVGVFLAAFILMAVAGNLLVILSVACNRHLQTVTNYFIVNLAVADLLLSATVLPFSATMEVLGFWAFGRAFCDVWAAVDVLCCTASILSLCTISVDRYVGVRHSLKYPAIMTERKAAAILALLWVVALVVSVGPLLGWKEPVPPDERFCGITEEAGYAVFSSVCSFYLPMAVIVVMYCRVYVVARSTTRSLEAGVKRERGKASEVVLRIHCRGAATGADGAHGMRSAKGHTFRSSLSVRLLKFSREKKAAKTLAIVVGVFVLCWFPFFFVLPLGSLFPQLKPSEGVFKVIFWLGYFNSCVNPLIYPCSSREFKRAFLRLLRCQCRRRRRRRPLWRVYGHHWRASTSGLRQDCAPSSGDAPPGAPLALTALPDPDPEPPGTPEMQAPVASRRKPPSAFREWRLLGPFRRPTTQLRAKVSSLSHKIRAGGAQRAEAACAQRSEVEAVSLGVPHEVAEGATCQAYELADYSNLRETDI

## AdTx1 peptide
[1]
  IC50: 0.5 nM
[2]
  IC50: > 50000 nM
[3]
  IC50: 1.8 nM
[4]
  IC50: 9900 nM
[5]
  IC50: > 50000 nM

## radiolabeled AdTx1 peptide (125I-AdTx1)
[6]
  Kd: 0.8 nM
